Experimental data taken from article PMC9177958, “Structures of nonsense-mediated mRNA decay factors UPF3B and UPF3A in complex with UPF2 reveal molecular basis for competitive binding and for neurodevelopmental disorder-causing mutation” (Nucleic Acids Research, 2022).

T1: UPF3B-WT (human, UniProt Q9BZI7-2 1-470)
T1 sequence: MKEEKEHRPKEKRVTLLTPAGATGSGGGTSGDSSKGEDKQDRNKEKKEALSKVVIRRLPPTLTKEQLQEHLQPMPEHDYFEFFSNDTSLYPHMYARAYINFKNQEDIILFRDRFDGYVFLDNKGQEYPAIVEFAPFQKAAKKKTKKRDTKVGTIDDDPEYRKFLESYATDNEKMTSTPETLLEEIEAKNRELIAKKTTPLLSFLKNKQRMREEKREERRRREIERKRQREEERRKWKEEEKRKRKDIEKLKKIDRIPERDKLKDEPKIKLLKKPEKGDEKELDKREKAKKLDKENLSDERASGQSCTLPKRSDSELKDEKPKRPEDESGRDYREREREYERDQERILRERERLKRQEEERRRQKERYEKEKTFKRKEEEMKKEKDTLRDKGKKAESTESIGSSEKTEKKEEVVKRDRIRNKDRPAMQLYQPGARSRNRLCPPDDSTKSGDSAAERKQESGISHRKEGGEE

T2: UPF3B-146-417 (human, UniProt Q9BZI7-2 146-417)
T2 sequence: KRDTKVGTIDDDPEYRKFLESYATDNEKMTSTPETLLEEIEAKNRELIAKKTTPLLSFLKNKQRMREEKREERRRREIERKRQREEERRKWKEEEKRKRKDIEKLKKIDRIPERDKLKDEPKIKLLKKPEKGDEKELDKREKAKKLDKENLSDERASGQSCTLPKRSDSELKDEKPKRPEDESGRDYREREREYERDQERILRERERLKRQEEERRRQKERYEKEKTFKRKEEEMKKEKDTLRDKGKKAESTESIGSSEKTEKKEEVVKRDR

T3: UPF3B-41-262 (human, UniProt Q9BZI7 41-262)
T3 sequence: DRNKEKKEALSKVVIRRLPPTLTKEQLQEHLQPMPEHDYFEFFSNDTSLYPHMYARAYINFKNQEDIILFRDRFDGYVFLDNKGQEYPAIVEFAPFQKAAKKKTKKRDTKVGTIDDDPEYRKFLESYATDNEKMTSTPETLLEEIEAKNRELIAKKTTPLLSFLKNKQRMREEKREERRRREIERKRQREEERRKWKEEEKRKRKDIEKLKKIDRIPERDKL

T4: UPF3B-41-143 (RRM-L) (human, UniProt Q9BZI7 41-143)
T4 sequence: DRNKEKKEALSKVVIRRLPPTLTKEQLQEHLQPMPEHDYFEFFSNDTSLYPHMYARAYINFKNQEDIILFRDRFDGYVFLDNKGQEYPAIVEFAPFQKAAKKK

T5: UPF3B-146-256 (human, UniProt Q9BZI7 146-256)
T5 sequence: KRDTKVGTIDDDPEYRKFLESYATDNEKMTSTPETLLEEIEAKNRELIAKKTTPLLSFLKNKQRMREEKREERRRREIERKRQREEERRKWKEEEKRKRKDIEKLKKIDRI

T6: UPF3B-41-214 (human, UniProt Q9BZI7 41-214)
T6 sequence: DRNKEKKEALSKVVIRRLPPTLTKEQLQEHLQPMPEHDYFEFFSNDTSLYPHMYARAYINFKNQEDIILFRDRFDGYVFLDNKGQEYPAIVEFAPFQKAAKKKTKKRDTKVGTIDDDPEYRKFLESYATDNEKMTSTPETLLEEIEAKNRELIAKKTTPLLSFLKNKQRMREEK


Tests used:
Assay in all cases: fluorescence anisotropy; FA: 5 nM probe, 150 mM NaCl, 25 mM HEPES pH 7.45, 1 mM TCEP, 20 C; EMSA: 250 nM probe, 25 mM HEPES pH 7.45, 2 mM MgCl2, 150 mM NaCl, 0.5 mM TCEP, on ice
UPF3B-WT = target: T1, UPF3B-WT; conditions: protein: recombinant, tags: 6xHis removed by TEV
UPF3B-146-417 = target: T2, UPF3B-146-417; conditions: protein: recombinant; tags: 6xHis removed by TEV; label: 5' HEX on strand 1; blunt
UPF3B-41-262 = target: T3, UPF3B-41-262; conditions: protein: recombinant; tags: 6xHis removed by TEV; label: 5' HEX on strand 1; blunt
UPF3B-41-143 (RRM-L) = target: T4, UPF3B-41-143 (RRM-L); conditions: protein: recombinant; tags: 6xHis removed by TEV; label: 5' HEX on strand 1; blunt
UPF3B-146-256 = target: T5, UPF3B-146-256; conditions: protein: recombinant; tags: 6xHis removed by TEV; label: 5' HEX on strand 1; blunt
UPF3B-41-214 = target: T6, UPF3B-41-214; conditions: protein: recombinant; tags: 6xHis removed by TEV; label: 5' HEX on strand 1; blunt
UPF2-MIF4GIII = UPF2-MIF4GIII (UniProt Q9HAU5 761-1054); conditions: protein: recombinant; tags: 6xHis removed by TEV; label: 5' HEX; single strand; 24-mer hairpin RNA
UPF2-MIF4GIII, sequence (Q9HAU5 761-1054): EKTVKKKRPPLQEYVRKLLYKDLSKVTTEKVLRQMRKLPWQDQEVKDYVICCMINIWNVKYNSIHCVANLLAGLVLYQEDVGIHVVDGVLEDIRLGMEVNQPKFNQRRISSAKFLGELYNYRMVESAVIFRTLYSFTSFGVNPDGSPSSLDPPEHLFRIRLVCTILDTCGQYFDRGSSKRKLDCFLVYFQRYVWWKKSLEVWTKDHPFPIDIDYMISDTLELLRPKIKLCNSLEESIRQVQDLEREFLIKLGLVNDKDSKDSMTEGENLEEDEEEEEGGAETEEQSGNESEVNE

[1] = target: UPF3B-41-143 (RRM-L);UPF2-MIF4GIII (human;human?, UniProt Q9BZI7;Q9HAU5 41-143;761-1054, |); conditions: protein: recombinant;recombinant; tags: 6xHis removed by TEV;6xHis removed by TEV; copies: 1;1; label: 5' HEX; single strand; 24-mer hairpin RNA
UPF3B-41-143 (RRM-L);UPF2-MIF4GIII, sequence (Q9HAU5 761-1054, one chain of several): as the sequence (Q9HAU5 761-1054) above

| Binder | Kd (UPF3B-WT; label: 5' HEX on strand 1, blunt) [nM] | Kd (UPF3B-146-417) [nM] | Kd (UPF3B-41-262) [nM] | Kd (UPF3B-41-143 (RRM-L)) [nM] | Kd (UPF3B-146-256) [nM] | Kd (UPF3B-41-214) [nM] | Kd (UPF2-MIF4GIII) [nM] | Kd (UPF3B-WT; label: 5' HEX, single strand, 24-mer hairpin RNA) [nM] | Kd [1] [nM] |
| --- | --- | --- | --- | --- | --- | --- | --- | --- | --- |
| 24mer dsRNA (dsRNA) RNA 1: CCCUGAGCUGACGCAGCACCUGGG RNA 2: CCCAGGUGCUGCGUCAGCUCAGGG | 15 | 280 | 37 | 9200 | 1800 | 1200 |  |  |  |
| CACUGAUCUGACGCUGCACCUGGG (ssRNA) [24mer ssRNA] |  |  |  |  |  |  | ~700 | 30 | 620 |
